We go through one molecule from patent publication CN114002427A (dated 2022).

The target of the assay is T1, 新型冠状病毒核衣壳蛋白 (SARS-COV-2, UniProt P0DTC9 1-419).
T1 construct: also called SARS-COV-2 nucleocapsid protein; 新型冠状病毒核衣壳蛋白抗原
As to the kind of experiment: ELISA screening of hybridomas for antigen-specific antibodies. Background: An ELISA detects its analyte on a solid surface through an enzyme-linked reagent.

B1: mAb#9 (antibody, V domains shown)
VH: EVQLVESGGGLVKPGGSLKLSCAASGITFSDYYMYWVRQTPEKRLEWVATISDGGSYTYYPDSVKGRFTISRDNAKNNLYLQMSSLKSEDTAMYYCVRDKSMGFGAWFAYWGQGTLVTVSA
VL: EIVLTQSPTTMAASPGEKITITCSASSSISSNYLHWYQQRPGFSPKLLIYRTSNLASGVPARFSGSGSGTSYSLTIGTMEAEDVATYYCQQGHSIPYTFGGGTKLEIK
notes: also called 新型冠状病毒核衣壳抗体(mAb#9); 第二新型冠状病毒核衣壳蛋白抗体
With B1, the binding result is recorded as “binds”.
